Reference: patent US20050118674A1, “Engineering of Controlled Deamidation Rates in Peptides, Proteins, and Similar Structures” (priority 2003, published 2005)

assay: First-order nonenzymatic deamidation of pentapeptides in Tris buffer; assay type: physicochemical; conditions: pH 7.4, 37.0° C., 0.15 M Tris HCl; Asn pentapeptides
Outline: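 Pentapeptides containing Asn or Gln in varied flanking sequences incubated at 37° C., pH 7.4, 0.15 M Tris buffer; first-order deamidation rates measured. Some Asn values estimated from remaining data; many Gln values derived from surface fitting rather than measured.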

Substance | First-Order Deamidation Halftimes of GlyXxxAsnYyyGly [days]
GlyProAsnTyrGly (GPNYG; printed: GlyProAsnTyrGly) | 114
GlyProAsnValGly (GPNVG; printed: GlyProAsnValGly) | 364
GlySerAsnAlaGly (GSNAG; printed: GlySerAsnAlaGly) | 24.1
GlySerAsnAmCysGly | 41.3
GlySerAsnArgGly (GSNRG; printed: GlySerAsnArgGly) | 59.7
GlySerAsnAspGly (GSNDG; printed: GlySerAsnAspGly) | 30.3
GlySerAsnCysGly (GSNCG; printed: GlySerAsnCysGly) | 60.2
GlySerAsnGluGly (GSNEG; printed: GlySerAsnGluGly) | 59.7
GlySerAsnGlyGly (GSNGG; printed: GlySerAsnGlyGly) | 0.96
GlySerAsnHisGly (GSNHG; printed: GlySerAsnHisGly) | 9.0
GlySerAsnIleGly (GSNIG; printed: GlySerAsnIleGly) | 285
GlySerAsnLeuGly (GSNLG; printed: GlySerAsnLeuGly) | 110
GlySerAsnLysGly (GSNKG; printed: GlySerAsnLysGly) | 55.5
GlySerAsnMetGly (GSNMG; printed: GlySerAsnMetGly) | 54.9
GlySerAsnPheGly (GSNFG; printed: GlySerAsnPheGly) | 52.2
GlySerAsnProGly (GSNPG; printed: GlySerAsnProGly) | 7060
GlySerAsnSerGly (GSNSG; printed: GlySerAsnSerGly) | 15.1
GlySerAsnThrGly (GSNTG; printed: GlySerAsnThrGly) | 45.7
GlySerAsnTrpGly (GSNWG; printed: GlySerAsnTrpGly) | 76.8
GlySerAsnTyrGly (GSNYG; printed: GlySerAsnTyrGly) | 64.7

Substance | First-Order Deamidation Halftimes of GlyXxxAsnYyyGly [days]
GlySerAsnValGly (GSNVG; printed: GlySerAsnValGly) | 233
GlyThrAsnAlaGly (GTNAG; printed: GlyThrAsnAlaGly) | 24.6
GlyThrAsnAmCysGly | 34.4
GlyThrAsnArgGly (GTNRG; printed: GlyThrAsnArgGly) | 51.2
GlyThrAsnAspGly (GTNDG; printed: GlyThrAsnAspGly) | 27.9
GlyThrAsnCysGly (GTNCG; printed: GlyThrAsnCysGly) | 55.5
GlyThrAsnGluGly (GTNEG; printed: GlyThrAsnGluGly) | 60.8
GlyThrAsnGlyGly (GTNGG; printed: GlyThrAsnGlyGly) | 1.04
GlyThrAsnHisGly (GTNHG; printed: GlyThrAsnHisGly) | 9.6
GlyThrAsnIleGly (GTNIG; printed: GlyThrAsnIleGly) | 279
GlyThrAsnLeuGly (GTNLG; printed: GlyThrAsnLeuGly) | 110
GlyThrAsnLysGly (GTNKG; printed: GlyThrAsnLysGly) | 57.6
GlyThrAsnMetGly (GTNMG; printed: GlyThrAsnMetGly) | 47.6
GlyThrAsnPheGly (GTNFG; printed: GlyThrAsnPheGly) | 76.4
GlyThrAsnProGly (GTNPG; printed: GlyThrAsnProGly) | 6290
GlyThrAsnSerGly (GTNSG; printed: GlyThrAsnSerGly) | 17.1
GlyThrAsnThrGly (GTNTG; printed: GlyThrAsnThrGly) | 50.0
GlyThrAsnTrpGly (GTNWG; printed: GlyThrAsnTrpGly) | 72.5
GlyThrAsnTyrGly (GTNYG; printed: GlyThrAsnTyrGly) | 80.6
GlyThrAsnValGly (GTNVG; printed: GlyThrAsnValGly) | 237

same assay, conditions: pH 7.4, 37.0 ° C., 0.15 M Tris HCl; Gln pentapeptides; 52 values measured, rest derived from surface fitting

Substance | First-Order Deamidation Halftimes of GlyXxxGlnYyyGly [days]
GlyProGlnAlaGly (GPQAG; printed: GlyProGlnAlaGly) | 4700
GlyProGlnArgGly (GPQRG; printed: GlyProGlnArgGly) | 6400
GlyProGlnAspGly (GPQDG; printed: GlyProGlnAspGly) | 7200
GlyProGlnCysGly (GPQCG; printed: GlyProGlnCysGly) | 1600
GlyProGlnGluGly (GPQEG; printed: GlyProGlnGluGly) | 6800
GlyProGlnGlyGly (GPQGG; printed: GlyProGlnGlyGly) | 630
GlyProGlnHisGly (GPQHG; printed: GlyProGlnHisGly) | 5200
GlyProGlnIleGly (GPQIG; printed: GlyProGlnIleGly) | 6000
GlyProGlnLeuGly (GPQLG; printed: GlyProGlnLeuGly) | 5800
GlyProGlnLysGly (GPQKG; printed: GlyProGlnLysGly) | 5500
GlyProGlnMetGly (GPQMG; printed: GlyProGlnMetGly) | 4500
GlyProGlnPheGly (GPQFG; printed: GlyProGlnPheGly) | 7300
GlyProGlnProGly (GPQPG; printed: GlyProGlnProGly) | 8900
GlyProGlnSerGly (GPQSG; printed: GlyProGlnSerGly) | 4600
GlyProGlnThrGly (GPQTG; printed: GlyProGlnThrGly) | 4600
GlyProGlnTrpGly (GPQWG; printed: GlyProGlnTrpGly) | 13000
GlyProGlnTyrGly (GPQYG; printed: GlyProGlnTyrGly) | 10000
GlyProGlnValGly (GPQVG; printed: GlyProGlnValGly) | 6200
GlySerGlnAlaGly (GSQAG; printed: GlySerGlnAlaGly) | 6400
GlySerGlnArgGly (GSQRG; printed: GlySerGlnArgGly) | 7200

Substance | First-Order Deamidation Halftimes of GlyXxxGlnYyyGly [days]
GlySerGlnAspGly (GSQDG; printed: GlySerGlnAspGly) | 8200
GlySerGlnCysGly (GSQCG; printed: GlySerGlnCysGly) | 2100
GlySerGlnGluGly (GSQEG; printed: GlySerGlnGluGly) | 8100
GlySerGlnGlyGly (GSQGG; printed: GlySerGlnGlyGly) | 700
GlySerGlnHisGly (GSQHG; printed: GlySerGlnHisGly) | 6500
GlySerGlnIleGly (GSQIG; printed: GlySerGlnIleGly) | 5900
GlySerGlnLeuGly (GSQLG; printed: GlySerGlnLeuGly) | 6100
GlySerGlnLysGly (GSQKG; printed: GlySerGlnLysGly) | 6300
GlySerGlnMetGly (GSQMG; printed: GlySerGlnMetGly) | 5100
GlySerGlnPheGly (GSQFG; printed: GlySerGlnPheGly) | 8300
GlySerGlnProGly (GSQPG; printed: GlySerGlnProGly) | 10000
GlySerGlnSerGly (GSQSG; printed: GlySerGlnSerGly) | 6000
GlySerGlnThrGly (GSQTG; printed: GlySerGlnThrGly) | 5400
GlySerGlnTrpGly (GSQWG; printed: GlySerGlnTrpGly) | 17000
GlySerGlnTyrGly (GSQYG; printed: GlySerGlnTyrGly) | 13000
GlySerGlnValGly (GSQVG; printed: GlySerGlnValGly) | 6800
GlyThrGlnAlaGly (GTQAG; printed: GlyThrGlnAlaGly) | 4300
GlyThrGlnArgGly (GTQRG; printed: GlyThrGlnArgGly) | 5100
GlyThrGlnAspGly (GTQDG; printed: GlyThrGlnAspGly) | 6300
GlyThrGlnCysGly (GTQCG; printed: GlyThrGlnCysGly) | 1000
